Columns and labels:
[1] = target: T1, SARS-CoV-2 RBD protein (321–591) (SARS-CoV-2, Wuhan-Hu-1 (MN908947), UniProt P0DTC2); experiment: SPR; settings: both partners purified
[2] = target: T1, SARS-CoV-2 RBD protein (321–591); experiment: cell-based or functional assay

B1: S309H-XG81L (antibody, V domains shown)
VH: not shown
VL: DIQMTQSPSSLSASVGDRVTITCRASQSISSSLNWYQQKPGKAPKLLIYAASNLQSGVPSRFSGSGSGTDFTLTISSLQPEDFATYYCQQSFSTLFTFGPGTKVDLK
notes: also called rAb S309H-XG81L
- Kd [1]: 21.1 nM
- IC50 of neutralisation of authentic SARS-CoV-2 on Vero E6 cells (CPE assay) [2]: 1.25 µg/mL

Reference: paper PMC8442604 (Frontiers in Immunology, 2021)
